Test system: Escherichia coli TOP10
Experiment: shrunken log2 fold change of peptide-encoding DNA abundance (4.5 h post-induction vs induction); higher = less antimicrobial activity (less host growth inhibition)
Details: time post-induction: 4.5 h; library: site-saturation at positions 5, 18, 19, 20
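Also: peptides expressed intracellularly from a pBAD plasmid library in pooled LB shake-flask culture, induced with 0.3% L-arabinose, DNA abundance read by NGS, three biological replicates, DESeq2 with apeglm shrinkage.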

Sequence	shrunken log2 fold change
RRIRRRPPRLPRPRPRPYSIPRP	0.0088
RRIRWRPPRLPRPRPRPGMFPRP	0.281
RRIRYRPPRLPRPRPRPAVEPRP	0.161
RRIRCRPPRLPRPRPRPEDVPRP	-0.0129
RRIRPRPPRLPRPRPRPTCIPRP	-0.146
RRIRTRPPRLPRPRPRPAFAPRP	0.282
RRIRNRPPRLPRPRPRPIMYPRP	-0.309
RRIRRRPPRLPRPRPRPEYSPRP	-0.265
RRIRYRPPRLPRPRPRPIEKPRP	-0.203
RRIRIRPPRLPRPRPRPVSVPRP	-0.191
RRIRMRPPRLPRPRPRPHGGPRP	-0.0492
RRIRDRPPRLPRPRPRPRMPPRP	0.156
RRIRERPPRLPRPRPRPEMVPRP	-0.0371
RRIRGRPPRLPRPRPRPFKDPRP	-0.681
RRIRFRPPRLPRPRPRPEILPRP	-0.0488
RRIRERPPRLPRPRPRPVSKPRP	-0.201
RRIRRRPPRLPRPRPRPYQCPRP	0.0675
RRIRVRPPRLPRPRPRPRDRPRP	0.46
RRIRMRPPRLPRPRPRPEKQPRP	2.16
RRIRWRPPRLPRPRPRPAHIPRP	-0.0509
RRIRRRPPRLPRPRPRPDVMPRP	0.195
RRIRVRPPRLPRPRPRPLFYPRP	-0.22
RRIRKRPPRLPRPRPRPIGPPRP	0.0335
RRIRDRPPRLPRPRPRPVYEPRP	-0.105
RRIRRRPPRLPRPRPRPSELPRP	0.0695

Sequence	shrunken log2 fold change
RRIRYRPPRLPRPRPRPDSHPRP	-0.782
RRIRCRPPRLPRPRPRPAQVPRP	-0.053
RRIRNRPPRLPRPRPRPRLSPRP	0.0939
RRIRFRPPRLPRPRPRPRRRPRP	0.658
RRIRPRPPRLPRPRPRPWRTPRP	0.141
RRIRIRPPRLPRPRPRPWAWPRP	-0.00783
RRIRNRPPRLPRPRPRPFKFPRP	-0.423
RRIRRRPPRLPRPRPRPCFLPRP	-0.269
RRIRCRPPRLPRPRPRPLSWPRP	0.513
RRIRRRPPRLPRPRPRPTRAPRP	0.738
RRIRTRPPRLPRPRPRPDICPRP	0.0407
RRIRVRPPRLPRPRPRPQCLPRP	-0.0868
RRIRMRPPRLPRPRPRPEGCPRP	3.93
RRIRVRPPRLPRPRPRPSGYPRP	-0.28
RRIRCRPPRLPRPRPRPWNYPRP	-0.282
RRIRERPPRLPRPRPRPYWDPRP	-0.111
RRIRHRPPRLPRPRPRPKAMPRP	-0.0705
RRIRWRPPRLPRPRPRPWYFPRP	0.275
RRIRHRPPRLPRPRPRPYEPPRP	-0.451
RRIRDRPPRLPRPRPRPFEIPRP	-0.0367
RRIRCRPPRLPRPRPRPLKMPRP	-0.365
RRIRQRPPRLPRPRPRPRKTPRP	0.00489
RRIRFRPPRLPRPRPRPMTHPRP	-0.401
RRIRGRPPRLPRPRPRPQAQPRP	1.02
RRIRLRPPRLPRPRPRPVQPPRP	0.653

From the supplement of paper PMC9112550, “Optimization of the antimicrobial peptide Bac7 by deep mutational scanning” (BMC Biology, 2022)
